Assay results reported in US20160061835A1 (BAYLOR COLLEGE OF MEDICINE, published 2016).

Target: T1, Norwalk virus (NV) virus-like particle (Norwalk virus (genotype GI.1), UniProt Q83884 1-530; Q83885 1-212)
T1 construct: also called NV-VLP; NV-VLPs
T1 sequence 1: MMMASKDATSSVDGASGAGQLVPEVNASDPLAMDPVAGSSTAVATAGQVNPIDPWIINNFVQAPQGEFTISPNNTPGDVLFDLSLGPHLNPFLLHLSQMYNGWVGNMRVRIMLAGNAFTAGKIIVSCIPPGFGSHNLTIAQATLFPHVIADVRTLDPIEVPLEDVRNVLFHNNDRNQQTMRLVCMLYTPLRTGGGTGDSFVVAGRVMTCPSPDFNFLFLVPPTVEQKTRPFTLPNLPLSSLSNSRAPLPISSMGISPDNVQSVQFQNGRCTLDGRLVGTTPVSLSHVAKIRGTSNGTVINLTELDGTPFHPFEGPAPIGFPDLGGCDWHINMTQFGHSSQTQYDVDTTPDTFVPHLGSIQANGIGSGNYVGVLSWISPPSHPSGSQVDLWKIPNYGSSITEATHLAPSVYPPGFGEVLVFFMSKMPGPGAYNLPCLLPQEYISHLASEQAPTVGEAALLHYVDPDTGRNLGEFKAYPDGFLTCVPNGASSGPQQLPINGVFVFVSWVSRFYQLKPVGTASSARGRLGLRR
T1 sequence 2: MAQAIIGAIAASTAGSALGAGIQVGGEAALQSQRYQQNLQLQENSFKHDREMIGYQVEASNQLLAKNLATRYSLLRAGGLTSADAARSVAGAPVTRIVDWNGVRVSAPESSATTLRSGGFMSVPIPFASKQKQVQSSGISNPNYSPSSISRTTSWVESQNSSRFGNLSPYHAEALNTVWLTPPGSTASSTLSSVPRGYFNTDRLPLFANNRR
Test: capture ELISA: NV-VLP captured by immobilized polyclonal antibody, M13 phage antibody detection

B1: non-peptide displaying M13 phage (other)
chain: AETVESCLAKPHTENSFTNVWKDDKTLDRYANYEGCLWNATGVVVCTGDETQCYGTWVPIGLAIPENEGGGSEGGGSEGGGSEGGGTKPPEYGDTPIPGYTYINPLDGTYPPGTEQNPANPNPSLEESQPLNTFMFQNNRFRNRQGALTVYTGTVTQGTDPVKTYYQYTPVSSKAMYDAYWNGKFRDCAFHSGFNEDPFVCEYQGQSSDLPQPPVNAGGGSGGGSGGGSEGGGSEGGGSEGGGSEGGGSGGGSGSGDFDYEKMANANKGAMTENADENALQSDAKGKLDSVATDYGAAIDGFIGDVSGLANGNGATGDFAGSNSQMAQVGDGDNSPLMNNFRQYLPSLPQSVECRPFVFSAGKPYEFSIDCDKINLFRGVFAFLLYVATFMYVFSTFANILRNKES
notes: Whole phage particle used as negative control; also called M13 control phage
Does B1 bind?
Result: no binding
